Experimental data: patent US20240174727A1, “LONG-ACTING NATRIURETIC PEPTIDES AND USES THEREOF” (Eli Lilly and Company, priority 2022, published 2024)
Numbered stars: 1 amine (or outer) side, 2 acyl side, 3 side chain; on linkers, the order of the positions; unused ones are H or OH. Bridge positions count the residues as written; N and C are the ends. Square brackets hold non-standard residues; d marks the D form. * marks the point of attachment. thioacetal = thioacetal linkage between two cysteines (intrachain bond at the bracketed Cys); C20 diacid = O=C(O)CCCCCCCCCCCCCCCCCCC(=O)*; γGlu = O=C(O)[C@H](CCC(=O)[*:2])N[*:1]; Orn = NCCC[C@H](N)C(=O)O; Dap = NC[C@H](N)C(=O)O; βAla = NCCC(=O)O

Legend:
rat NPRA = target: T1, rat NPRA (rat, UniProt P18910 29-1057); assay: cell-based or functional assay
T1 sequence (looked up): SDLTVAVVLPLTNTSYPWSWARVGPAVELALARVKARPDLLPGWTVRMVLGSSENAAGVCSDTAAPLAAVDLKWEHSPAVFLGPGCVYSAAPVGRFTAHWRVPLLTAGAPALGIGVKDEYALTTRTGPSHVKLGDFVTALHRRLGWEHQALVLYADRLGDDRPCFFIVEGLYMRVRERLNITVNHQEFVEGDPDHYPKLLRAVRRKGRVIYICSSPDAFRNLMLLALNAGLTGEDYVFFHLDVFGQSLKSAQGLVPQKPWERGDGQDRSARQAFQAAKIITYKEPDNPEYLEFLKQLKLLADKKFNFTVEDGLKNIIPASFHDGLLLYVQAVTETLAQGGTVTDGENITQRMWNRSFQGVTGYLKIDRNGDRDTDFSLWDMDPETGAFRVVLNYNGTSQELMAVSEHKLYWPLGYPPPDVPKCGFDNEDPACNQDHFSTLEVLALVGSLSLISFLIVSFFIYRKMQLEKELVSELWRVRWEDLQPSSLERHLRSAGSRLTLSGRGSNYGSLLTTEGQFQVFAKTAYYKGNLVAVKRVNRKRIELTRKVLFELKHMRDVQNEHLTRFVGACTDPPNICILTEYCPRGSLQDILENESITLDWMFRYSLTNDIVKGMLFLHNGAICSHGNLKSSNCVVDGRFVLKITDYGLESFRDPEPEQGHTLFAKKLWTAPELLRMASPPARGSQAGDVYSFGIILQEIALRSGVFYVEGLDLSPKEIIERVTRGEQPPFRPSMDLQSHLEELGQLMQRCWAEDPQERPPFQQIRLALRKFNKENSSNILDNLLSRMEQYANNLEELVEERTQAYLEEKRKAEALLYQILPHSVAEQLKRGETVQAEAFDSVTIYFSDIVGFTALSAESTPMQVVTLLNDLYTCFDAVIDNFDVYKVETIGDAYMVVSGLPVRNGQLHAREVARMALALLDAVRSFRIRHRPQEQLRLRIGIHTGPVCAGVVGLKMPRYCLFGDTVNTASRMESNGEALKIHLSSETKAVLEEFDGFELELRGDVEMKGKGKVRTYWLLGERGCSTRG

human NPRA = target: T2, human NPRA (human, UniProt P16066 33-1061); assay: cell-based or functional assay
T2 sequence (looked up): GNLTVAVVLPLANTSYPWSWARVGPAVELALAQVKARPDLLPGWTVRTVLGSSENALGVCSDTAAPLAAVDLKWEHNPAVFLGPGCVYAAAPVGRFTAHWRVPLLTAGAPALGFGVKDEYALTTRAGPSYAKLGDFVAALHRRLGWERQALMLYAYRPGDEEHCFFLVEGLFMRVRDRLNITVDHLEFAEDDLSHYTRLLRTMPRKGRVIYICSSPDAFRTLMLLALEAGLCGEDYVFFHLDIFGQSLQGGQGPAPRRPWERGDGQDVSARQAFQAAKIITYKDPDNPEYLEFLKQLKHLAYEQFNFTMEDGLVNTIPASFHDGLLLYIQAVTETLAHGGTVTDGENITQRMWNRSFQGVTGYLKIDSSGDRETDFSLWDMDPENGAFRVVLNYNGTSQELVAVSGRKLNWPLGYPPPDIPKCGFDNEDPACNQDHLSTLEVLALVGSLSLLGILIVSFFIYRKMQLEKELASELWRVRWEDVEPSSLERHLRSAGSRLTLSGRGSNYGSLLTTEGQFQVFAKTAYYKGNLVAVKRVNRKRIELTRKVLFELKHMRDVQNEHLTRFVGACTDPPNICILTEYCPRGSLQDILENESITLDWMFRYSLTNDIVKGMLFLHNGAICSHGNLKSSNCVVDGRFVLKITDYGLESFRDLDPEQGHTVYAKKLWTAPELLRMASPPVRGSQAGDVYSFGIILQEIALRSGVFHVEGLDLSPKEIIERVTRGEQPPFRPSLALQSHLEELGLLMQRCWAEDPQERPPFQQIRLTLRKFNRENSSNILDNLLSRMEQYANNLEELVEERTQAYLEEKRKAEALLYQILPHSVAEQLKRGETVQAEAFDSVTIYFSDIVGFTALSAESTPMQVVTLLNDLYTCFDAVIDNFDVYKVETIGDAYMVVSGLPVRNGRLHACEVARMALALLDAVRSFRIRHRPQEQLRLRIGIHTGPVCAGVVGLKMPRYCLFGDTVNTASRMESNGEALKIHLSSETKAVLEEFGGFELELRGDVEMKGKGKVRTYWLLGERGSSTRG

B1: HOOC-(CH2)18-CO-(γGlu)-EKEKEKG-(AEEA)8-EKPRSS[CFGKRIDRIGHYSGLGC]PSFRHGSPSSGAPPPS-NH2 (peptide)
peptide: EKPRSSCFGKRIDRIGHYSGLGCPSFRHGSPSSGAPPPS
modifications: N-terminus acylated with HOOC-(CH2)18-CO-(γGlu)-; (AEEA)8 after EKEKEKG; thioacetal linkage between the two bracketed Cys; C-terminal amide
- cGMP Assay (EC50, pM) w/BSA, rNPRA (rat NPRA): 147000 pM
- cGMP Assay (EC50, pM) w/Casein, rNPRA (rat NPRA): 3990 pM
- cGMP Assay (EC50, pM) w/BSA, hNPRA (human NPRA): 9550 pM
- cGMP Assay (EC50, pM) w/Casein, hNPRA (human NPRA): 902 pM

B2: HOOC-(CH2)18-CO-(γGlu)-EKEKEKG-PEG24-EKPRSS[CFGKRIDRIGHYSGLGC]PSFRHSGSPSSGAPPPSG-NH2 (peptide)
peptide: EKPRSSCFGKRIDRIGHYSGLGCPSFRHSGSPSSGAPPPSG
modifications: N-terminus acylated with HOOC-(CH2)18-CO-(γGlu)-; PEG24 after EKEKEKG; thioacetal linkage between the two bracketed Cys; C-terminal amide
- cGMP Assay (EC50, pM) w/BSA, rNPRA (rat NPRA): 74300 pM
- cGMP Assay (EC50, pM) w/Casein, rNPRA (rat NPRA): 4510 pM
- cGMP Assay (EC50, pM) w/BSA, hNPRA (human NPRA): 3980 pM
- cGMP Assay (EC50, pM) w/Casein, hNPRA (human NPRA): 656 pM

B3: HOOC-(CH2)18-CO-(γGlu)-EKEKEKG-PEG24-EKPRSS[CFGKRIDRIGHYSGLGC]PSFRHGSPSSGAPPPS-NH2 (peptide)
peptide: EKPRSSCFGKRIDRIGHYSGLGCPSFRHGSPSSGAPPPS
modifications: N-terminus acylated with HOOC-(CH2)18-CO-(γGlu)-; PEG24 after EKEKEKG; thioacetal linkage between the two bracketed Cys; C-terminal amide
- cGMP Assay (EC50, pM) w/BSA, rNPRA (rat NPRA): 80200 pM
- cGMP Assay (EC50, pM) w/Casein, rNPRA (rat NPRA): 4850 pM
- cGMP Assay (EC50, pM) w/BSA, hNPRA (human NPRA): 5170 pM
- cGMP Assay (EC50, pM) w/Casein, hNPRA (human NPRA): 736 pM

B4: HOOC-(CH2)18-CO-(γGlu)-EKEKEKG-(AEEA)8-EKPRSS[CFGKRIDRIGHYSGLGC]PSFRHSGSPSSGAPPPSG-NH2 (peptide)
peptide: EKPRSSCFGKRIDRIGHYSGLGCPSFRHSGSPSSGAPPPSG
modifications: N-terminus acylated with HOOC-(CH2)18-CO-(γGlu)-; (AEEA)8 after EKEKEKG; thioacetal linkage between the two bracketed Cys; C-terminal amide
- cGMP Assay (EC50, pM) w/BSA, rNPRA (rat NPRA): 88500 pM
- cGMP Assay (EC50, pM) w/Casein, rNPRA (rat NPRA): 3760 pM
- cGMP Assay (EC50, pM) w/BSA, hNPRA (human NPRA): 6370 pM
- cGMP Assay (EC50, pM) w/Casein, hNPRA (human NPRA): 1090 pM

Binder: {C20 diacid-γGlu}-EKEKEKGEKPRSSCFGKRIDRIGHQSGLGCPSFRHGSPSSGAPPPS-NH2 (bridge 14-30 via thioacetal) [HOOC-(CH2)18-CO-(γGlu)-EKEKEKGEKPRSS[CFGKRIDRIGHQSGLGC]PSFRHGSPSSGAPPPS-NH2]
- cGMP Assay (EC50, pM) w/BSA, rNPRA (rat NPRA): 341000 pM
- cGMP Assay (EC50, pM) w/Casein, rNPRA (rat NPRA): 2020 pM
- cGMP Assay (EC50, pM) w/BSA, hNPRA (human NPRA): 41500 pM
- cGMP Assay (EC50, pM) w/Casein, hNPRA (human NPRA): 703 pM

Binder: {C20 diacid}-[γGlu]EKEKEKGEK[βAla]RSSCFGKRIDRIGHYSGLGCPSFRHGSPSSGAPPPS-NH2 (bridge 15-31 via thioacetal) [HOOC-(CH2)18-CO-(γGlu)-EKEKEKGEK-βAla-RSS[CFGKRIDRIGHYSGLGC]PSFRHGSPSSGAPPPS-NH2]
- cGMP Assay (EC50, pM) w/BSA, rNPRA (rat NPRA): 498000 pM
- cGMP Assay (EC50, pM) w/Casein, rNPRA (rat NPRA): 2010 pM
- cGMP Assay (EC50, pM) w/BSA, hNPRA (human NPRA): 23700 pM
- cGMP Assay (EC50, pM) w/Casein, hNPRA (human NPRA): 566 pM

Binder: {C20 diacid-γGlu}-EKEKEKGEKPRSSCFGKRIDRIGHQSGLGCPSFRHGSGSPSSGAPPPSG-NH2 (bridge 14-30 via thioacetal) [HOOC-(CH2)18-CO-(γGlu)-EKEKEKGEKPRSS[CFGKRIDRIGHQSGLGC]PSFRHGSGSPSSGAPPPSG-NH2]
- cGMP Assay (EC50, pM) w/BSA, rNPRA (rat NPRA): 816000 pM
- cGMP Assay (EC50, pM) w/Casein, rNPRA (rat NPRA): 2160 pM
- cGMP Assay (EC50, pM) w/BSA, hNPRA (human NPRA): 37600 pM
- cGMP Assay (EC50, pM) w/Casein, hNPRA (human NPRA): 392 pM

B5: HOOC-(CH2)18-CO-(γGlu)-EKEKEKG-PEG24-EKPRSS[CFGKRIDRIGHQSGLGC]PSFRHSGSPSSGAPPPSG-NH2 (peptide)
peptide: EKPRSSCFGKRIDRIGHQSGLGCPSFRHSGSPSSGAPPPSG
modifications: N-terminus acylated with HOOC-(CH2)18-CO-(γGlu)-; PEG24 after EKEKEKG; thioacetal linkage between the two bracketed Cys; C-terminal amide
- cGMP Assay (EC50, pM) w/BSA, rNPRA (rat NPRA): 260000 pM
- cGMP Assay (EC50, pM) w/Casein, rNPRA (rat NPRA): 9390 pM
- cGMP Assay (EC50, pM) w/BSA, hNPRA (human NPRA): 5300 pM
- cGMP Assay (EC50, pM) w/Casein, hNPRA (human NPRA): 704 pM

B6: HOOC-(CH2)18-CO-(γGlu)-EKEKEKG-PEG24-EKPRSS[CFGKGIDRIGHQSGLGC]PSFRHSGSPSSGAPPPSG-NH2 (peptide)
peptide: EKPRSSCFGKGIDRIGHQSGLGCPSFRHSGSPSSGAPPPSG
modifications: N-terminus acylated with HOOC-(CH2)18-CO-(γGlu)-; PEG24 after EKEKEKG; thioacetal linkage between the two bracketed Cys; C-terminal amide
- cGMP Assay (EC50, pM) w/BSA, rNPRA (rat NPRA): 1.45e+06 pM
- cGMP Assay (EC50, pM) w/Casein, rNPRA (rat NPRA): 580000 pM
- cGMP Assay (EC50, pM) w/BSA, hNPRA (human NPRA): 302000 pM
- cGMP Assay (EC50, pM) w/Casein, hNPRA (human NPRA): 38700 pM

Binder: {C20 diacid-γGlu}-EKEKEKGEKPRSSCFGKRIDRIG[Orn]YSGLGCPSFRHGSPSSGAPPPS-NH2 (bridge 14-30 via thioacetal) [HOOC-(CH2)18-CO-(γGlu)-EKEKEKGEKPRSS[CFGKRIDRIG-Orn-YSGLGC]PSFRHGSPSSGAPPPS-NH2]
- cGMP Assay (EC50, pM) w/BSA, rNPRA (rat NPRA): 6.52e+06 pM
- cGMP Assay (EC50, pM) w/Casein, rNPRA (rat NPRA): 186000 pM
- cGMP Assay (EC50, pM) w/BSA, hNPRA (human NPRA): 104000 pM
- cGMP Assay (EC50, pM) w/Casein, hNPRA (human NPRA): 497 pM

Binder: {C20 diacid-γGlu}-EKEKEKGEKPRSSCFGG[Dap]IDRIGHYSGLGCPSFRHGSPSSGAPPPS-NH2 (bridge 14-30 via thioacetal) [HOOC-(CH2)18-CO-(γGlu)-EKEKEKGEKPRSS[CFGG-Dap-IDRIGHYSGLGC]PSFRHGSPSSGAPPPS-NH2]
- cGMP Assay (EC50, pM) w/BSA, rNPRA (rat NPRA): 3.8e+06 pM
- cGMP Assay (EC50, pM) w/Casein, rNPRA (rat NPRA): 71700 pM
- cGMP Assay (EC50, pM) w/BSA, hNPRA (human NPRA): 1.41e+06 pM
- cGMP Assay (EC50, pM) w/Casein, hNPRA (human NPRA): 5350 pM
